Results from patent publication US20250376511A1 (Sanofi, published 2025).
Numbering of substitutions follows the chain as printed. Values belong to the binder of their own block, whether it stands above or below them.

Tests used:
[1] = molecular target: T1, Human active C1s (Complement Technology) (human, UniProt P09871 16-688); experiment: cell-based or functional assay
T1 sequence: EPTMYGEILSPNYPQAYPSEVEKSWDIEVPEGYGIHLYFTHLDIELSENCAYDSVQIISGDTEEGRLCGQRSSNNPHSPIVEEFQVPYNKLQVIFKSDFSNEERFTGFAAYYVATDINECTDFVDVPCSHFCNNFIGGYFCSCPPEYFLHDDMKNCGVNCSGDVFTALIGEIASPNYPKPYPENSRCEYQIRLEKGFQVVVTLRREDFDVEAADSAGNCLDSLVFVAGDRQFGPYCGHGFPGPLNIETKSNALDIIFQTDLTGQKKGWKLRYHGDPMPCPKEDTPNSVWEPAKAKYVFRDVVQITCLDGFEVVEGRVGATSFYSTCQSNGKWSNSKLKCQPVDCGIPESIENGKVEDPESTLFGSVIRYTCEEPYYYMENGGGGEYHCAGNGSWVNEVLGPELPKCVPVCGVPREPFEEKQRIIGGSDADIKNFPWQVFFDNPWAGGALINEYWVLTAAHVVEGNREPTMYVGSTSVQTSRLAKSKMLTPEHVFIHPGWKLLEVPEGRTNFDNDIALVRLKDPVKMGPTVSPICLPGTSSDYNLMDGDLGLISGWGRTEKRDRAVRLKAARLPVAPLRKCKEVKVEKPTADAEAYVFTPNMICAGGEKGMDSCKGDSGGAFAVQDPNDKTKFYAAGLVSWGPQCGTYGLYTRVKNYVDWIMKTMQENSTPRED

[2] = molecular target: T1, Human active C1s (Complement Technology); experiment: cell-based or functional assay; remark: listed apart in the source
[3] = molecular target: T2, His-tagged recombinant human TfR (produced in-house) (human, UniProt P02786 89-760); experiment: hTfR affinity, SPR (method not restated for Table 1; same value as Table 2)
T2 construct: also called hTfR; transferrin receptor 1
Method: (§1) TfR and C1s binding using surface plasmon resonance (SPR): Analysis of antibody binding to TfR was performed on a Biacore™ T200 instrument using anti-His capture at 25° C. Anti-His (Qiagen) was buffer exchanged into PBS pH 7.2, diluted to 25 μg/mL in 10 mM sodium acetate pH 4.0 and directly immobilized to a series S CM5 chip to a surface density of ˜10,000 RU using the amine coupling kit provided by Cytiva. His-tagged recombinant human TfR (produced in-house) was diluted in HBS-EP+ pH 7.4 running buffer (10 mM HEPES pH 7.4, 150 mM NaCl, 3 mM EDTA, 0.05% surfactant P20) and injected for 5 sec at 20 μL/min flowrate to obtain capture level of 20 RU. Antibodies were serially diluted 2-fold from 90 to 5.625 nM in running buffer and injected over the captured TfR for 3 min followed by 9 min dissociation in buffer at 30 μL/min. Each cycle was regenerated with 10 mM glycine pH 1.5. To measure C1s binding, anti-human Fc (Jackson) was directly immobilized to a CM5 chip using amine chemistry. Antibodies were diluted to 2.5 μg/mL in HBS-EP+ pH 7.4 and captured to the chip for 15 sec at 20 μL/min flowrate. Human active C1s (Complement Technology) was serially diluted 2-fold from 20 to 0.625 nM in running buffer and injected over the captured antibodies for 180 sec at 50 μL/min followed by 9 min dissociation in buffer. The bound complex was removed from the chip each cycle with 40 mM HCl and 0.85% phosphoric acid. Sensorgrams were processed using the Biacore™ Insight software and fit to a 1:1 binding model to obtain kinetic constants.
(§2) The six bispecific anti-aC1s/anti-TfR antibodies were first tested for their affinity for both TfR and aC1s via surface plasmon resonance (SPR) (Table 2).

[4] = molecular target: T1, Human active C1s (Complement Technology); experiment: SPR Biacore T200, antibody captured on anti-human Fc, human active C1s as analyte, 1:1 fit
Method: as §1, §2

[5] = molecular target: T2, His-tagged recombinant human TfR …; experiment: SPR Biacore T200, His-tagged human TfR captured on anti-His, antibody as analyte, 25 C, 1:1 fit
Method: as §1, §2

[6] = molecular target: T2, His-tagged recombinant human TfR …; experiment: SPR Biacore T200 (Table 2)
Method: as §1, with “The bound complex was removed from the chip each cycle with 40 mM HCl and 0.85% phosphoric acid. Sensorgrams were processed using the Biacore™ Insight software and fit to a 1:1 binding model to obtain kinetic constants.” left out

[7] = molecular target: T1, Human active C1s (Complement Technology); experiment: cell-based or functional assay; remark: listed apart in the source
[8] = molecular target: T2, His-tagged recombinant human TfR …; experiment: affinity of bispecific purified from CHO cells (SPR; details not restated)
[9] = molecular target: T1, Human active C1s (Complement Technology); experiment: as above
cynomolgus TfR = molecular target: T3, cynomolgus TfR (cynomolgus, UniProt H9EXL1 89-760 (rhesus entry)); experiment: as above
T3 construct: also called Cyno TfR; cTfR

cynomolgus aC1s = molecular target: T4, cynomolgus aC1s (cynomolgus, UniProt A0A2K5VQX9 16-685); experiment: as above
T4 construct: also called Cyno aC1s; caC1s
T4 sequence: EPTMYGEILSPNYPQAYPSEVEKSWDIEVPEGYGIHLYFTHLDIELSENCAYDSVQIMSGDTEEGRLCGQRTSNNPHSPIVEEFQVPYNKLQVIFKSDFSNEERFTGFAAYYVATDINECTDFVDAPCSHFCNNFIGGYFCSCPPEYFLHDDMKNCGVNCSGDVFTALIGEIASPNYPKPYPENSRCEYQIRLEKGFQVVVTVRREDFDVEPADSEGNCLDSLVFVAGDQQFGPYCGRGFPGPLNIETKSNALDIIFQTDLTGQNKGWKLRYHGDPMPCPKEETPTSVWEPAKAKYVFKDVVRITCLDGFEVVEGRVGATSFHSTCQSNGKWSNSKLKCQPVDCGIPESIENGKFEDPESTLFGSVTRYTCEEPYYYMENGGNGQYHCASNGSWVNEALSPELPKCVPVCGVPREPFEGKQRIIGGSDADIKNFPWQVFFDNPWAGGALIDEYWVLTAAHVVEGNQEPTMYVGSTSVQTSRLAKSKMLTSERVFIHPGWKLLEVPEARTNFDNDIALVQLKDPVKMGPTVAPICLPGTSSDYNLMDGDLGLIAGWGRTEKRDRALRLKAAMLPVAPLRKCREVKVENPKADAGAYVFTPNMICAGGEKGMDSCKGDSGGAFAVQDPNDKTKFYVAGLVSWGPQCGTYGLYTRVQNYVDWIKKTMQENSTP

T2 sequence (P02786 89-760 limits assumed): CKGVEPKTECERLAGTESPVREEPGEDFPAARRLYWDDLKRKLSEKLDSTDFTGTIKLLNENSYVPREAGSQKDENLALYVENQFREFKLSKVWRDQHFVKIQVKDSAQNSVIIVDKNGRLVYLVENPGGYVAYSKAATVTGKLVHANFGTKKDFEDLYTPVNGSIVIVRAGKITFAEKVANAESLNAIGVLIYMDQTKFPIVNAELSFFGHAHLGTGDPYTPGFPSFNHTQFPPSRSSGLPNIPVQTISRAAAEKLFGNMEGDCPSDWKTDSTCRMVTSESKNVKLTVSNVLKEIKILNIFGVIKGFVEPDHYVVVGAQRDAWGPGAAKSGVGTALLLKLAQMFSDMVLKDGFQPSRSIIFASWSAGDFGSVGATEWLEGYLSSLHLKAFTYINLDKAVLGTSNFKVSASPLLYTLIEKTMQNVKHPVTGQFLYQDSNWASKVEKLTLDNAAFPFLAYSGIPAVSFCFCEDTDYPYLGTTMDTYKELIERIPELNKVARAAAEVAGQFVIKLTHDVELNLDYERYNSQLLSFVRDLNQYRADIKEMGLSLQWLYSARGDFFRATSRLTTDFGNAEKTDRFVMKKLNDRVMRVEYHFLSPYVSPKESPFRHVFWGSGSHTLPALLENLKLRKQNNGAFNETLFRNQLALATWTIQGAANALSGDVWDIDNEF
T3 sequence (chain, as listed by the source): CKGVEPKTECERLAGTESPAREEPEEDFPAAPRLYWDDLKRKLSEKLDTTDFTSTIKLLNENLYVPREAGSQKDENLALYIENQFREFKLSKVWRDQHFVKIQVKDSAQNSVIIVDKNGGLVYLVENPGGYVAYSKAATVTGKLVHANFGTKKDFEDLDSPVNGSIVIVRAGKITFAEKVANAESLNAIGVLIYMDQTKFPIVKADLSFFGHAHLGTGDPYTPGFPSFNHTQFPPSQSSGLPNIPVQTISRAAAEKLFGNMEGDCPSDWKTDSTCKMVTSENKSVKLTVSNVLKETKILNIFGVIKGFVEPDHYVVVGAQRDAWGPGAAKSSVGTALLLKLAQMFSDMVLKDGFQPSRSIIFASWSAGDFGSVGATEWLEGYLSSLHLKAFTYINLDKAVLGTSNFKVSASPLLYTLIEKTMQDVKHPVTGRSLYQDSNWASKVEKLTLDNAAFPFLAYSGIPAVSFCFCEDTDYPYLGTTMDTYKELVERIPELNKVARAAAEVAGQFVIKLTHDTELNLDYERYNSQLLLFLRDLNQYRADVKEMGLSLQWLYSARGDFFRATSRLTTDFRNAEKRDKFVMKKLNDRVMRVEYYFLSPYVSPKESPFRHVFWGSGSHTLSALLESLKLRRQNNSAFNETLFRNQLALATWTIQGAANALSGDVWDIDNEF

B1: aC1s_088 × 531v25 IgG4-PE/dK (bispecific antibody, V domains shown)
VH 1: QVQLVQSGAEVKKPGASVKLSCTASGFNIKDDYIHWVKEAPGQGLEWIGRIDPADGHTKYAPKFQVKVTITADTSTSTAYLELSSLRSEDTAVYYCARYGYGREVFDYWGQGTTVTVSS
VL 1: DIVLTQSPDSLAVSLGERATISCKASQSVDYDGDSYMNWYQKKPGQPPKILIYDASNLESGIPARFSGSGSGTDFTLTISSLEPEDFAIYYCQQSNEDPWTFGGGTKVEIK
VH 2: QVQLVQSGAEVKKPGASVKVSCKASGYTFTRYYLNWVRKAPGQGLEWIGMIDPSVSETHYAQKFQGRATLTVDKSTSTAYMELSSLRSEDTAVYYCSQIRLPYYYAMDSWGQGTTVTVSS
VL 2: DIQMTQSPSSLSASVGDRVTITCRASQDISSFLNWYQEKPGKAPKLLIYYTSRLQSGVPSRFSGSGSGTDYTLTISSLQPEDFATYYCQQGNTLPRTFGGGTKVEIK
notes: IgG4-PE Fc, dK, with charge pairing mutations; The starred variable domains are used, as for m5; also called aC1s_088-CM × 531v25 IgG4
IC50, Wieslab Complement Pathway Assay (classical pathway, 1% NHS) [1]: 1.63 µg/mL
IC50, C3d deposition on neurons in iPSC tricultures with serum [2]: 29.3 µg/mL
Kd [3]: 22.6 nM
Kd [4]: 0.75 nM
koff [4]: 0.00246 s⁻¹
kon [4]: 3.31e+06 M⁻¹ s⁻¹
Kd [5]: 22.6 nM
koff [5]: 0.00413 s⁻¹
kon [5]: 183000 M⁻¹ s⁻¹

B3: aC1s_088 × 531v25.v6 IgG4-PE/dK (bispecific antibody, V domains shown)
VH 1: B1 VH 1
VL 1: B1 VL 1
VH 2: B1 VH 2
VL 2: B1 VL 2 with S30E
notes: IgG4-PE Fc, dK, with charge pairing mutations; The starred variable domains are used, as for m5; also called aC1s_088-CM × 531v25.v6 IgG4
IC50, Wieslab Complement Pathway Assay (classical pathway, 1% NHS) [1]: 1.79 µg/mL
IC50, C3d deposition on neurons in iPSC tricultures with serum [2]: 7.48 µg/mL
Kd [3]: 18.9 nM
Kd [4]: 0.76 nM
koff [4]: 0.00273 s⁻¹
kon [4]: 3.59e+06 M⁻¹ s⁻¹
Kd [5]: 18.9 nM
koff [5]: 0.00304 s⁻¹
kon [5]: 161000 M⁻¹ s⁻¹

B4: bispecific anti-aC1s (L4H5)/anti-TfR (531v25.v6) antibody (bispecific antibody, human IgG4 S228P, kappa)
heavy 1: QVQLVQSGAEVKKPGASVKLSCTASGFNIKDDYIHWVKEAPGQGLEWIGRIDPADGHTKYAPKFQVKVTITAATSTSTAYLQLSSLRSEDTAVYYCARYGYGREVFDYWGQGTTVTVSSASTKGPSVFPLAPCSRSTSESTAALGCLVKDYFPEPVTVSWNSGALTSGVHTFPAVLQSSGLYSLSSVVEVPSSSLGTKTYTCNVDHKPSNTKVDERVESDYGPPCPPCPAPEFEGGPSVFLFPPKPKDTLMISRTPEVTCVVVDVSQEDPEVQFNWYVDGVEVHNAKTKPREEQFNSTYRVVSVLTVLHQDWLNGKEYKCKVSNKGLPSSIEKTISKAKGQPREPQVCTLPPSQEEMTKNQVSLSCAVKGFYPSDIAVEWESNGQPENNYKTTPPVLDSDGSFFLVSRLTVDKSRWQEGNVFSCSVLHEALHSRFTQKSLSLSLG
light 1: DIVMTQSPDSLAVSLGERATISCKSSQSVDYEGDSYLNWYQKKPGQPPKLLIYDASNLESGVPDRFSGSGSGTDFTLTISSLQAEDVAVYYCQQSNEDPWTFGQGTKVEIKRTVAAPAVFIFPPSKKQLKSGTASVVCLLKNFYPREAKVQWKVDNALQSGNSQESVTEQDSKDSTYSLSSTLTLSKADYEKHKVYACEVTHQGLSSPVTKSFNRGEC
heavy 2: QVQLVQSGAEVKKPGASVKVSCKASGYTFTRYYLNWVRKAPGQGLEWIGMIDPSVSETHYAQKFQGRATLTVDKSTSTAYMELSSLRSEDTAVYYCSQIRLPYYYAMDSWGQGTTVTVSSASTKGPSVFPLAPCSRSTSESTAALGCLVKDYFPEPVTVSWNSGALTSGVHTFPAVLQSSGLYSLSSVVTVPSSSLGTKTYTCNVDHKPSNTKVDKRVESKYGPPCPPCPAPEFEGGPSVFLFPPKPKDTLMISRTPEVTCVVVDVSQEDPEVQFNWYVDGVEVHNAKTKPREEQFNSTYRVVSVLTVLHQDWLNGKEYKCKVSNKGLPSSIEKTISKAKGQPREPQVYTLPPCQEEMTKNQVSLWCLVKGFYPSDIAVEWESNGQPENNYKTTPPVLDSDGSFFLYSRLTVDKSRWQEGNVFSCSVLHEALHSHYTQKSLSLSLG
light 2: DIQMTQSPSSLSASVGDRVTITCRASQDIESFLNWYQEKPGKAPKLLIYYTSRLQSGVPSRFSGSGSGTDYTLTISSLQPEDFATYYCQQGNTLPRTFGGGTKVEIKRTVAAPSVFIFPPSDEQLKSGTASVVCLLNNFYPREAKVQWKVDNALQSGNSQESVTEQDSKDSTYSLSSTLTLSKADYEKHKVYACEVTHQGLSSPVTKSFNRGEC
notes: Purified from CHO cells; monovalent for aC1s
IC50, Wieslab Complement Pathway Assay [7]: 1.04 µg/mL
IC90, Wieslab Complement Pathway Assay [7]: 7.55 µg/mL
Kd [8]: 39.3 nM
Kd [9]: 2.26 nM
Kd (cynomolgus TfR): 72.5 nM
Kd (cynomolgus aC1s): 0.252 nM

B6: bispecific anti-aC1s (L2H5)/anti-TfR (531v25.v6) antibody (bispecific antibody, human IgG4 S228P, kappa)
heavy 1: B4 heavy 1
light 1: B4 light 1 with D74A
heavy 2: B4 heavy 2
light 2: B4 light 2
notes: as for B4
IC50, Wieslab Complement Pathway Assay [7]: 1.23 µg/mL
IC90, Wieslab Complement Pathway Assay [7]: 9.7 µg/mL
Kd [8]: 34.3 nM
Kd [9]: 2.64 nM
Kd (cynomolgus TfR): 48.9 nM
Kd (cynomolgus aC1s): 0.315 nM

Results, then the binder that gave them:

fold higher affinity than the 531v25 and 531v25.v6 variants [6]: ~2 fold
IC50, Wieslab Complement Pathway Assay (classical pathway, 1% NHS) [1]: 1.67 µg/mL
IC50, C3d deposition on neurons in iPSC tricultures with serum [2]: 13.9 µg/mL
Kd [4]: 0.66 nM
koff [4]: 0.00275 s⁻¹
kon [4]: 4.18e+06 M⁻¹ s⁻¹
Kd [5]: 10.3 nM
koff [5]: 0.00197 s⁻¹
kon [5]: 192000 M⁻¹ s⁻¹
B2: aC1s_088 × 531v23 IgG1-NNAS/dK (bispecific antibody, V domains shown)
VH 1: B1 VH 1
VL 1: B1 VL 1
VH 2: B1 VH 2
VL 2: B1 VL 2 with Q55H
notes: IgG1-NNAS Fc, dK, with charge pairing mutations; The starred variable domains are used, as for m5; also called v23 variant

IC50, Wieslab Complement Pathway Assay [7]: 1.37 µg/mL
IC90, Wieslab Complement Pathway Assay [7]: 10.2 µg/mL
Kd [8]: 29.9 nM
Kd [9]: 3.19 nM
Kd (cynomolgus TfR): 52.8 nM
Kd (cynomolgus aC1s): 0.243 nM
B5: bispecific anti-aC1s (L2)/anti-TfR (531v25.v6) antibody (bispecific antibody, human IgG4 S228P, kappa)
heavy 1: B4 heavy 1 with A73D, Q82E
light 1: B4 light 1 with D74A
heavy 2: B4 heavy 2
light 2: B4 light 2
notes: as for B4
